Source: a protein production outcome set (Wang et al. 2014)

Test: label from the status in PepcDB records

Sequence	protein production
MSFKGEITHLVPNELYAFKVVEGPFHYTGTYRFKPHPEGTWIEWVFEAEPGSFFGVLPPALLKKMVLAQFKKDVDNLQALAQKGEAYESVGNENKPTLETNKPPHKTQQMMERYARWILSHRRIVLEHHHHHH	failed
MSFKNFKCVPKMIFGRGSFVQLDTVLEQERTDANDFVVFLVDDVHQHKPLAARVPNKAHDLVIYVNVDDEPTTVQVDELTAQVKAFNTKLPVSVVGLGGGSTMDLAKAVSLMLTNPGSSSEYQGWDLIKNPAVHHIGIPTVSGTGAEASRTAVLCGPVRKLGLNSDYTVFDQIIMDSELIAGVPTDQWFYTGMDCFIHCVESLQGTYLNEFAKAFAEKSMDLCREVYLDDHPEKDDKLMMASYMGGMSIAYSQVGACHAVSYGLGYVLGYHHGIGNCLAFDVLEEFYPEGVAEFRKMMEIHNITLPKNICKDLPDETIAKMVAVTKSMGPLWDNVYGKGWEEKVTDEMLTKLFRRI	not failed
MSFNVFSGSFGQIFKRSRKNSHEYKNENATFELIKSSILVAFSGALRIHLAFLLMYIQSNILVCIAGGLIIYTVYTLDRALGSEEDSVNRKELNGSNKKVGLTVSLLAFMVGTYILAGEEMLPLAFIPFVTGYLYSKGIKIGKFALKLKGGLGVKNIVVGLTWGIFIAGLAGSGCRNLIPVVLIFIFFGVKLFINSTIYDFKDIAGDTLAGINTLPVSLGVRKTRNLLTGMHLFSHLVIGVALIHGALAFEPLIVLYSFVCGLICIQKFTHPEYEEFPSQKMERTLLVDGESTSITGLRIAGYLIA	failed
MSFPLIFERSRKGRRGLKLVKAVPKAEDLIPKEHLREVPPRLPEVDELTLVRHYTGLSRRQVGVDTTFYPLGSCTMKYNPKLHEEAARLFADLHPYQDPRTAQGALRLMWELGEYLKALTGMDAITLEPAAGAHGELTGILIIRAYHEDRGEGRTRRVVLVPDSAHGSNPATASMAGYQVREIPSGPEGEVDLEALKRELGPHVAALMLTNPNTLGLFERRILEISRLCKEAGVQLYYDGANLNAIMGWARPGDMGFDVVHLNLHKTFTVPHGGGGPGSGPVGVKAHLAPYLPVPLVERGEEGFYLDFDRPKSIGRVRSFYGNFLALVRAWAYIRTLGLEGLKKAAALAVLNARYLKELLKEKGYRVPYDGPSMHEFVAQPPEGFRALDLAKGLLELGFHPPTVYFPLIVKEALMVEPTETEAKETLEAFAEAMGALLKKPKEWLENAPYSTPVRRLDELRANKHPKLTYFDEG	not failed
MSFQEIPIIDLQEAFDPATRSKFLEEVRDAIINVGFLLLKNYESLGPTEEDLQSIKQQAIEFFALPAKEKLQCEMLNSPHFLGYTRLANEITASHTDWREQIDLATELPAPKEGEPLYKNIEGPNLWPNPEVIPKFRPTIERFIEKMTALSNVFKDLVAESIGVDPKALNRYFKENQQCKMKLIAYPDVSELDGTKSAALDDTPETNQGVEPHRDSDLITYIYQATEHQNSLQVQNFQGHWITVPNIPGHLVVNNGQTLQAITGGVAKATIHRVLVPEKGTGTRISIPFFQTIDLDSSKGVVDNLPQEVIDLKNERDKKIKDWGVDTGFQFEPDVSKEPIGHAVFRNRIKSHQDVAKKWYPDVLKSVLQEYTH	not failed
MSFSYGLAVPFVPTLVLLPQTSAAHVQRIRGGNILSLIDQPPPVVPTLTPPPQQARSGIRINKVTSSYAGLLTSVKEAGLLERCRRDYLLLLTLLVIAGAGVLVAFFFVGDSWLQLVVAAALGIVFTQFALFGHEAAHQQVFTSRAANEWAARLIATLMVGMSYAYWTDKHSRHHARPNVVNRDPDIAPGAIVFHNEVPTNRGRFSRAYGKRQGYLLFPLLLFLGWTLHIDSLKYLLKRGPVKFRWLELGLLGVRFGTYIGLLFLVLSPGIAVAFIGVQVAVFGLYMGGTFAPNHKGMPILPADSRADFLSRQVLTSRNITGGGFVTFLMGGLNYQIEHHLFPDMPRRHLREASQLVKAHCVRTGIPYTETSLMRSYSIVIRYLNTVGLAAADPFTCPLAGQHRP	failed
MSFTGKDYSRFRSQQQRGNPHSSEGNTSAVHGTGQNSRPQTPINQASGASPQQGNQSPNGSVNHANPLASRLNDITLDELLDSLGRAGLLRLDPNRPPGTFWFEDDPSVPATVRSIFERDFKELHANWSMTPQHVVDRWFETFAQMYNWDKTINKRVKTEFEAKLKERMTDQVCRWKGKWREKGDAAMPRWFDPAVWAGLISFWRDPKSELKSINSRNARLHDPDGLGIHKHRSGQTSYKAHARKRCELTGETTPNFLVLLDKTHRKPDGSFIDGKSEEIYNEVSSRIQEESSQLCSNNTTESTASGGGSKEEREDIWGWFIAARSRMSSHWSFSSSRRSG	failed
MSFTWRKKMDAKTNNAISKSMMFFHWVIGLGMIAVLISGLVMDDESNNLLFNAHMSFGLLVLALSVPRLVGRLIGGMPKPMTERSKFESIAAAVVMYSLLALTVVLPLSGIAVSVGEGYGLSLFGFELVSSGREIHMLKELGEGIHEFSGEALLPFLLVLHLGASFMHHFIKQDGTLLRMLGKA	failed
MSFVLWLVGKKCIVDVGTNGKNSWKVGGKDGVACRDHSGFRLEKLGLFCWWKLQKDGCGQKLNRRKDHRAFPLPSVVNERPRKLND	failed
MSFVSALCRLAVALWVGGATLFTFVLTPTIFRSESRDAAGRIVGYLFPGYFRWGLACGAVALVALLVVRGKNWIPAAALMVVMLAVTAFQALHIEPKAAELKRQIPSFETTTKDHPLRREFSKLHGISAACNLSVIAGGVVLVILL	failed
MSFYIQLASLSIIILYVLLLFRNVDPLVATAVCVGLGFLWNISTPIDIGNAMADALGSFMALVGFIIMLGRGLGEVLTHTQVSHTLVHQIVYGVGVNTQRRAKIGIVLSSFIIVGLLGTLAGGLAILAPSLRPIAGSVGLSRPSLAVLMQASAEEALILGPFAPPVVTLLGVTGLSYGTVFLYASLPIAVVTLITTWFMASRLQKLYINEPCEDENSTEPFTPNRQQKRVTLIFLISFLFCVVYGLFTQAKTSYVIFVMLFLALITGLSCRLGLKQIFNLLFEGMQKSLHLFFLFILFDPFMALIHQAGGFNALTELLTPLINLGGKPVLSILIGFTGAFGMPGAAEATIKMLHQLFSPSVLQMQLPLITFALCMLFATRVTNYAYPGANMFAAMGFAGSENVKAMIQNGLVVTGVQVAFLIVYSLFIP	failed
MSGHKCYSWELQDRFAQDKSVVNKMQQKYWETKQAFIKATGKKEDEHVVASDADLDAKLELFHSIQRTCLDLSKAIVLYQKRICFLSQEENELGKFLRSQGFQDKTRAGKMMQATGKALCFSSQQRLALRNPLCRFHQEVETFRHRAISDTWLTVNRMEQYRTEYRGALLWMKDVSQELDPDLYKQMEKFRKVQTQVRLAKKNFDKLKMDVCQKVDLLGASRCNLLSHMLATYQTTLLHFWEKTSHTMAAIHESFKGYQPYEFTTLKSLQDPMKKLVEKEGKKTSWRENREAVAPEPRQLISLEDEHKDSSTYKTEEGTSVLSSVDKGSVHDTCSGPIDELLDGKPEEACLGPTAGTPEPESGDKDDLLLLNEIFSTSCLDEGEFSREWAAVFGDDRLKEPAPMGAQGEPDPKPQIGSGFLPSQLLDQNMKDLQASLQEPAKAASDLTAWFSLFADLDPLSNPDAVGKTDKEHELLNA	failed
MSGPSTYQPQSPLMKWLEQRLPIAGLVHSSFIAYPTPRNLNYWWTFGAILSMMLAVQIVTGIVLAMHYTPHVDLAFDSVERIVRDVNYGWLLRNMHAAGASMFFIAVYVHMLRGLYYGSYKAPREVLWILGVIIYLLMMATGFMGYVLPWGQMSFWGATVITNLFSAFPIVGDSIVTLLWGGYSVGNPTLNRFFSLHYLLPFVIAGVVVLHVWALHVTGQNNPAGVEPKTEKDTVPFTPYATLKDVFGMSCFLVFYSWFIFYMPNYLGDAENYVPANPGVTPPHIVPEWYYLPFYAILRSIPNKLMGVIAMFGAIIVLLFLPWLDSCKVRSSRYRPMAKRFFWAFVVTCLVLGWLGSKPAEGIYTTLGQVFTFFYFAYFLIVLPVLGRMEKTLPLPNSIAEDVLNKGKVAKAVAGLVAVLFAGGLMVGGVQPAKANEGGENPPSLQWSFAGPFGTYDRAQLQRGFKIYKEVCSNCHSLKLLQYRNLAEPGGPGFTVEQAKEIAAAAQIKDGPNDQGEMFERPGRLADTFHSPFPNEQAARAANGGAAPPDMSLLAKARTYPRGFPQFIFDFFTQFQEQGPNYIAALLQGYEDTPPEGFSLPDGSFYNKWYPGHSIKMPPPIQAGMVSYDDGTPETLEQYAKDISTFLVWASEPHMEARKRLGLQVMIFLVILSSLLYFVKRKVWSNVH	failed
MSGRGKVKSEPMKVVFINTQYVETDARSFKTVVQELTGKNAIVAAGPFDSPSAFDGRCYDGGSKIGEDTRQLHGGGGGGGRMGTTTEFDRLFKEMPHMEELYKLWSEY	failed
MSGRLRNALHKIRDRGLTPRDLFSYGCIAGHRLLSGAWGTLMLRAKAGCLGITVGKGCECFGTVILSRWPGSRIELGDGVSIISSSRRCTSATIHAPTRLRTFAPTARIILEDGVSLNGTAITARSRTIRIGKGTMVAPNCVITDSDFHAMWPPETRLDTPAFERDADVTIGQHVWLGMRCIVLKGVTIGDGAIVAAGSVVTRDVPPATLVAGVPARVVRHLP	failed
MSGSQPGRDKAIPAPRPTADIWENPDQLPADRGDLIKAKLTPAVITIFLRNNLKRIALLASALFVLGMIVLWLLPVRYAATALVMVDPREQRVTTDQEVLPGIGQDAAALQSLIEIAKSDGFLRPLVEKLKVAEDHEIAGSETDPARVLDRFRKHLEIARRGLTYVIEMTFVAKDPQRAAYYANAVAEAFVASQTQVRAVAADEAAGWLSSRLKTLNEKLRASEDAVAAFKTQYRIVDAGRESTTRQLRVTELTQQVSAARLRTEEAKNRYEQAQRDLKSDVDGSTGSKSDLVSVLRTQRTQLNDQIAQKRAVLGDRHPELVIAYNQLAELNRQIEAERKRNIVSAKSDYDAMRDQLKALEQQLKSLETEMLGDDQAAVKLKELQREANANRAIYEQFLERYNTTNQQRLLQATQTKVASFATPPTRPTRPPLLVLIAAIAVASILVSIAVVAMLASLSNQPEQADNSGPPEGATAPVPVEAAATSAAEPIEEKKPAADYSNLPIVLRIPDLSGARTLGGKLAMLGGERRLDHYVVGLLDAIGVKPSQRGMVVLVTSVDPGAGKSSVARALNAIAVDRGMLSVVIEVAGQARSVPAAPSNRAEPDGGALVRVLKTTIPSVVRLIASEPDVSAQNDVRSEFDLILIDAPALATQTEVAEIAAHTDLNLLVIDSAVTEAGAALEAQALLSRRGHAPAGVVVNKAGAQPAPAAVPAARLAS	failed
MSGTSAALKPPADATTPVRHPDAPAPGELLGAHYGHCFGCGEEQSHGLHLAARAGQGVSITAEFTVQPAHQGAPGLAHGGVLATALDETLGSLNWLLRTIAVTGRLETDFVRPVPVGTVLYLEAEVTAVAGRKIYSTATGRIGGPEGPVAVRADALFVEVKVDHFTDNGRQEEIRAAMNDPDQLRRARAFEVNP	failed
MSGYFEILAILTCAVFVVWLFRRLNLPAILAYLVAGMLVGQHGLNLVQDQVDYDHFAELGIVFLLFTLGLEFSLPRLMAMRHLVVSVGSLQVGISLLVFIIAGLFFGLSFSEAFVVGSILALSSTAIVIRQLSETGAMKRKSGQLSVAILLFQDVAVVPLLIIIPMLAMDSQSSMVWALMLAMVKGVVVVALLLLIGKWLLPKVFNIIAQVRTDELFVLTTLLVTLLAAAFTQWFGLSMALGAFLAGMMLSESEYKHQLEADIRPYRDILLGLFFITVGMKLDVSLLISSPFSLLGLMLCFMLVKIMVIKILAVKAGESSKDAWASGLMLAQMGEFGFVLIALANQSQILPLDVASMLLGAGVISMAITPFMINNARSWALFLSQEKSPESLDLSQLPENKVLENHVVICGFGRVGQTVSRFLKQDEIDFVAIDVDPLRTQKAREAGEKVLFGSSRQTEVLNAAHLSEAKLVVIAFGDDKQSLEVIQKVRSMNEKVPILVRTRNDDQLDALQAAGANEVVPESLEGSLMLVSQVLSLTGVPFSRIMRRVQRERKNHYNHLHGFFQGEHTDMSPQAIDRIEFAHAILINDNSFSCGKSIESLNLGKMRVNVVALRRGDIECESPGKDTVLQAQDTLIIRGKPRGVEKADHYVQEGK	failed
